Where only a bound is given, the exact number is not on record here.

Among the targets are HLA-A*68:01; HLA-A*11:01; HLA-A*33:01; HLA-A*31:01; HLA-A*03:01.
Common to all, as to assay: IEDB peptide-MHC binding, purified MHC/competitive/radioactivity; filed as Kd, often an IC50 or EC50 that approximates it; ≥ and ≤ were set here for values at or beyond the usual limits of such assays
The target in a further test is HLA-A*02:03. The settings on record: source organism: Dengue virus 2 16681-PDK53.
The target in the next test is HLA-A*02:06. As to conditions: source organism: Dengue virus 2 Jamaica/1409/1983.
Setting [1] is: source organism: Vaccinia virus WR.
Where [2] appears, read: source organism: SARS coronavirus Tor2.
Where [3] appears, read: source organism: Mammarenavirus guanaritoense.
Where [4] appears, read: source organism: Mammarenavirus machupoense.

In the case of PSTVKTNLY, the Kd is 7980 nM in the test with HLA-A*68:01 (setting [1]); 6770 nM in the test with HLA-A*11:01 (setting [1]); 3680 nM with HLA-A*33:01 (setting [1]); 6120 nM with HLA-A*31:01 (setting [1]); at least 40300 nM with HLA-A*03:01 (setting [1]).

On to ILTYNKTSK, for which the Kd in the test with HLA-A*68:01 (setting [1]) was 442 nM; with HLA-A*11:01 (setting [1]), 1260 nM; in the test with HLA-A*33:01 (setting [1]), at least 20100 nM; in the test with HLA-A*31:01 (setting [1]), 1620 nM; in the test with HLA-A*03:01 (setting [1]) it was 45.8 nM.

SVKSFEIDK: the Kd with HLA-A*68:01 (setting [2]) was found to be 729 nM; with HLA-A*11:01 (setting [2]) it was 137 nM; in the test with HLA-A*33:01 (setting [2]), 12200 nM; in the test with HLA-A*31:01 (setting [2]), 1110 nM; with HLA-A*03:01 (setting [2]), 1560 nM.

In the case of FINFFNLLAK, the Kd in the test with HLA-A*68:01 (setting [1]) was determined as 6.53 nM; in the test with HLA-A*11:01 (setting [1]), 0.273 nM; with HLA-A*33:01 (setting [1]), 427 nM; with HLA-A*31:01 (setting [1]), 1820 nM; in the test with HLA-A*03:01 (setting [1]), 8.96 nM.

On to HLKVALYRR, for which the Kd worked out at 67.1 nM with HLA-A*68:01 (setting [1]); 9610 nM in the test with HLA-A*11:01 (setting [1]); 9.72 nM in the test with HLA-A*33:01 (setting [1]); 0.197 nM in the test with HLA-A*31:01 (setting [1]); 1190 nM with HLA-A*03:01 (setting [1]).

Take TLDQLEDSEY: the Kd is 4070 nM with HLA-A*68:01 (setting [1]); 1710 nM with HLA-A*11:01 (setting [1]); at least 40300 nM with HLA-A*33:01 (setting [1]); 14400 nM with HLA-A*31:01 (setting [1]); 8620 nM with HLA-A*03:01 (setting [1]).

Consider ETKITFALKK, for which the Kd with HLA-A*68:01 (setting [1]) was 74.8 nM; with HLA-A*11:01 (setting [1]), 93.1 nM; with HLA-A*33:01 (setting [1]), 3200 nM; with HLA-A*31:01 (setting [1]), 8270 nM; in the test with HLA-A*03:01 (setting [1]) it was 1230 nM.

Turning to IMKDGRVLVV, the Kd with HLA-A*02:03 worked out at 6.09 nM.

QAIEPSGNNY: the Kd with HLA-A*68:01 (setting [1]) is 692 nM; with HLA-A*11:01 (setting [1]), 4820 nM; with HLA-A*33:01 (setting [1]), at least 70000 nM; with HLA-A*31:01 (setting [1]), 3440 nM; in the test with HLA-A*03:01 (setting [1]), at least 70100 nM.

As for AQPLPQRQK, the Kd in the test with HLA-A*68:01 (setting [2]) is 3030 nM; in the test with HLA-A*11:01 (setting [2]) it was 879 nM; in the test with HLA-A*33:01 (setting [2]), at least 77700 nM; with HLA-A*31:01 (setting [2]), at least 53200 nM; with HLA-A*03:01 (setting [2]), at least 23600 nM.

Take TMEIEDQEYH: the Kd in the test with HLA-A*68:01 (setting [3]) is 8530 nM; with HLA-A*11:01 (setting [3]), at least 69700 nM; with HLA-A*33:01 (setting [3]) it was at least 70000 nM; with HLA-A*31:01 (setting [3]), at least 70000 nM; with HLA-A*03:01 (setting [3]) it was at least 70000 nM.

As for IIMRCWLCWK, the Kd with HLA-A*68:01 (setting [2]) came out at 0.903 nM; in the test with HLA-A*11:01 (setting [2]) it was 0.426 nM; with HLA-A*33:01 (setting [2]), 198 nM; with HLA-A*31:01 (setting [2]), 14.4 nM; in the test with HLA-A*03:01 (setting [2]) it was 1.65 nM.

TQTAGPWHL: the Kd with HLA-A*02:06 was 435 nM.

Turning to VIEDITFLR, the Kd was determined as 11.8 nM with HLA-A*68:01 (setting [1]); 54.6 nM with HLA-A*11:01 (setting [1]); 420 nM in the test with HLA-A*33:01 (setting [1]); 27.6 nM in the test with HLA-A*31:01 (setting [1]); 1560 nM in the test with HLA-A*03:01 (setting [1]).

Take VVQRCASNK: the Kd in the test with HLA-A*68:01 (setting [2]) was at least 48300 nM; with HLA-A*11:01 (setting [2]) it was 639 nM; with HLA-A*33:01 (setting [2]), at least 77700 nM; with HLA-A*31:01 (setting [2]) it was 8260 nM; with HLA-A*03:01 (setting [2]), 663 nM.

On to NQLESKVSGK, for which the Kd with HLA-A*68:01 (setting [2]) was 6960 nM; with HLA-A*11:01 (setting [2]) it was 14700 nM; in the test with HLA-A*33:01 (setting [2]), at least 70000 nM; with HLA-A*31:01 (setting [2]) it was at least 42500 nM; with HLA-A*03:01 (setting [2]) it was 9480 nM.

Take GTSNWTGNY: the Kd with HLA-A*68:01 (setting [1]) is 3720 nM; with HLA-A*11:01 (setting [1]), 1.06 nM; with HLA-A*33:01 (setting [1]) it was at least 77700 nM; in the test with HLA-A*31:01 (setting [1]), at least 77900 nM; with HLA-A*03:01 (setting [1]), 11.5 nM.

For the sequence IICEDAMYY, the Kd in the test with HLA-A*68:01 (setting [1]) was 3660 nM; with HLA-A*11:01 (setting [1]), 196 nM; in the test with HLA-A*33:01 (setting [1]), at least 77700 nM; with HLA-A*31:01 (setting [1]) it was at least 61400 nM; with HLA-A*03:01 (setting [1]), 2360 nM.

For AVRYYDGNIY, the dissociation constant (Kd) in the test with HLA-A*68:01 (setting [1]) is 3040 nM; with HLA-A*11:01 (setting [1]), 272 nM; in the test with HLA-A*33:01 (setting [1]) it was at least 70000 nM; in the test with HLA-A*31:01 (setting [1]), at least 70000 nM; with HLA-A*03:01 (setting [1]) it was 2500 nM.

For SSFDYCGTDH, the Kd with HLA-A*68:01 (setting [4]) is at least 41800 nM; with HLA-A*11:01 (setting [4]) it was at least 69700 nM; with HLA-A*33:01 (setting [4]), at least 42000 nM; in the test with HLA-A*31:01 (setting [4]) it was at least 31800 nM; in the test with HLA-A*03:01 (setting [4]) it was at least 70000 nM.

Regarding VTFRERYSYK, the Kd with HLA-A*68:01 (setting [1]) is 2.83 nM; with HLA-A*11:01 (setting [1]), 3.19 nM; with HLA-A*33:01 (setting [1]) it was 2480 nM; in the test with HLA-A*31:01 (setting [1]), 3360 nM; with HLA-A*03:01 (setting [1]), 0.457 nM.

For QMLTSGEYK, the Kd with HLA-A*68:01 (setting [1]) was 266 nM; with HLA-A*11:01 (setting [1]), 3.67 nM; with HLA-A*33:01 (setting [1]), 7280 nM; in the test with HLA-A*31:01 (setting [1]) it was 28.3 nM; in the test with HLA-A*03:01 (setting [1]), 6.95 nM.

A word on the Kd: it is the equilibrium constant for the complex coming apart.

The values above are taken from the Immune Epitope Database (IEDB).
